Results reported in the DeepSol protein solubility set.

assay: soluble on expression in E. coli; label from the status in PepcDB or PDB records

Sequence | soluble on expression in E. coli
MESIEQQLTELRTTLRHHEYLYHVMDAPEIPDAEYDRLMRELRELETKHPELITPDSPTQRVGAAPLAAFSQIRHEVPMLSLDNVFDEESFLAFNKRVQDRLKNNEKVTWCCELKLDGLAVSILYENGVLVSAATRGDGTTGEDITSNVRTIRAIPLKLHGENIPARLEVRGEVFLPQAGFEKINEDARRTGGKVFANPRNAAAGSLRQLDPRITAKRPLTFFCYGVGVLEGGELPDTHLGRLLQFKKWGLPVSDRVTLCESAEEVLAFYHKVEEDRPTLGFDIDGVVIKVNSLAQQEQLGFVARAPRWAVAFKFPAQEQMTFVRDVEFQVGRTGAITPVARLEPVHVAGVLVSNATLHNADEIERLGLRIGDKVVIRRAGDVIPQVVNVVLSERPEDTREVVFPTHCPVCGSDVERVEGEAVARCTGGLICGAQRKESLKHFVSRRAMDVDGMGDKIIDQLVEKEYVHTPADLFKLTAGKLTGLERMGPKSAQNVVNALEKAKETTFARFLYALGIREVGEATAAGLAAYFGTLEALEAASIEELQKVPDVGIVVASHVHNFFAEESNRNVISELLAEGVHWPAPIVINAEEIDSPFAGKTVVLTGSLSQMSRDDAKARLVELGAKVAGSVSKKTDLVIAGEAAGSKLAKAQELGIEVIDEAEMLRLLGS | soluble
MSRLSSLLILVCIGALLVETFAAPDEPIIVRSKRQQCRCVKNPNGGLTCSCAKGPADGSSSSIGSGVQYDAPQSADIANQLTAMSQQTTGMSGARCGCIQIVIQGAPQYNCQCGDQSGNPLPTTTTMAPTTSSTTTTTTTTTQAPTTTSTTTTQSPVSYPQVPTQTQGSNGACNCIMISITSPQTAQYQCQCAQPQQQQQQQVQYDTYEYAPVQTTPTPMPTTQVPTTQAPTTQAPTMPTSSSPVQYADTAATQYPLTTTCVMYVNVPTTACSCLPQYDQCAQNVCCLKSKFRSYKKAEETQPSTLDVLMNVLQTIKTKLE | not soluble
EAISLSFEQRGQRRAILRDLSLGLAKGESLVVLGPSGCGKSTLLNILAGFQKPDQGRVQIDGRTLEGPGGERGVVFQDDALMPWLNALDNVALGLRIRGLGKAERTARARQVLQLVGLQEYAEQSVAQLSGGQRQRLGLARALAVEPDFLLLDEPFGALDALTRERMQVLLLDLWKQTGKGLFLITHSVDEALFLATDLVVMDGPPARIVKRLPVDFARRYAAGETVRSIKADPEFGRLRQALLDEFLDVAEA | not soluble
MGSDKIHHHHHHMSKTKEQVVELAQKHGITIQEGSLILNESGLDFQVVFALDVNGKRWVLRLPRREDVVPSTAKEKKTLELIAPHLSVQVPNWEVYSVEMIAYKQLKGVPAATIDHGKKAYVWEMDHTNVSDRFIDTLASGMASLHQIKQDEARRAGVPAEQATEARERMSVRMEKVKSEFGVSEPLWARWQKWLHHDALWPAETGLVHGDLHAGHILIGEQTEVTGFIDWTEAQVTDLSEDFVPHYRIFGEAALNRLIAAYEEAGGYVWPSMKEHVIEREAAFPVAIAEFALKSGIGEYKRMAKEVLGVAE | not soluble
VERMYDVTPPGVVMGLAWTAMGGSTLFVETSLRRPQDKDAKGDKDGSLEVTGQLGEVMKESARIAYTFARAFLMQHAPANDYLVTSHIHLHVPEGATPKDGPSAGCTIVTALLSLAMGRPVRQNLAMTGEVSLTGKILPVGGIKEKTIAAKRAGVTCIVLPAENKKDFYDLAAFITEGLEVHFVEHYREIFDIAFPDEQAEALAVER | soluble
MDTNSLLSAGSDMAKAANLSDADIIQLSDAACKQSDQESKIAPAGNKYSVRLTKLMRGFGNMTLNGQKVNYKVYMTEDVNAWAMGNGCVRVYTGLMDLMNDDELRGVIGHEMGHVALGHTKKAMQTAYAVSAARQAAGAAGNSVVASLSASQLGEMTEKFINAQFSQSQETAADDFSFDLLTEKKMNRKGLVTAFQKLAELDGGESSMFSSHPSSPDRAARMEKRLQAGKLEHHHHHH | soluble
MRAEVKEICKALHLAYIADRFEEVRFETKEQFLRDVLALELSCCQEAKQARLIKKAKFRELKWLKDYEWSGHIHWPATTSREELCDLRFLERKQNVLLLGSPGTGKTHLATALGIQACQQGHEVRFFRVADLVAQLEEALKNGTLGRLKRSLDTCELLILDELGYVPFQKQGSELLFHIIADCYERKSVMVTSNLEFGQWNRVFGDNRLTAALVDRLVHHAHILAFTGESYRLRNALSAIQPSSASGLEP | not soluble
MDPARECEGKGACELKSNKRFADKIMPHLLNLYGSSAKANDFDMYAPNASFEDPLTHAQGVKQIKSAFYSLPKVFGESKIVEYHIQESETSPGKKEILIDNKQHYKIMGRNIDMISLIKLYVEDGKIVRHEDWWDKKPLRNRDTVSFPLVGRVMEMGRRGLMLATHAMMGFGKDPDSQ | soluble
MAHHHHHHMYSQRLSRVSPYLSNGSLSPRRFYEMLRRYATENLRDNFVQMQYREALLRLSRRDYWHWMGLRYGTLLFFPYGPRPEQTDNIPDWRHDEKIVQKWCAGLTGVPFADAAMRELLTTGFVAHEGRQALAWLLTRGYGQDWRLGAEWLERCSLDYDPFLCYGNFAYFSELILDDFGEPVRSVHWLAHHHDQTGIYVKKWLPLLSKIPPVYIHRPHVLTPRMQAMHGVRLGKTYPYPLKLWDGAQYMLGSDELTTYFDDSSAWHRKTKSGAGGPGHAEALRHGKAIMKVREWNAAILPEEVAQRPWAHHLPASAFESSEDEVETLQMRQRNQNQPTRHGQLSL | not soluble
MSLAFDETRLPDDVERGAQGGPRFKTTVITLSSGFERRNSDWAQTRGEWDVGYGMQDATDLEDVIAFFYARNGRARGFRFKDWTDYVLSRQAIGTTDGSNATFQLFKRYTSGSTSFDRILSKIVTATTQVWVNNVEAPEGGASTSFAIDTTTGMITLGSSLAAQSGTTVEAACQFDVPVRFGSDALDITAEWADAVGAPNIPIVEIRVEGHHHHHH | soluble
MSTEDALCFTGEEYARHVREYWRGVAESDGFDSEDIRSPVVLTGLFHYDCQSGRRYPDPLLVKRYALLGLHRFNILQGTSFELDALQKFNKTMNLTSSYYITLLANEPGAIPLQKTFQVRVDERKYDTLDLTVAIARLKKDQNEAAETTKEPFVPHFCCSAVSDGVFQGPLPDWPSDDALRHDRNRFYELEKSEWQATDWISLYLELLILATDRGMFGVAQTGLPQVQILKVVIETEEENEKPLDKRLNARRAHVYITFTGLPKSPRLVEIGEHVERKAIIRRVIDDSGYLTLLGKFWSGKDTEQRSKTRQSEEKVESSQKRSRLC | soluble
SNAMKAIIKEDVQASLERYADRPVYIHLETTTGSYSAHLNEKNMTVVAYIRNAKVTYHQAKIKGNGPYRVGLKTEEGWIYAEGLTEYTVDEENRLLMAGHLPGGKLAISLQISEKPFTV | soluble
MGHHHHHHSHNLGPRLTPLLQEEDSHQRLLMGLMVSELKDHFLRHLQGVEKKKIEQMVLDYISKLLDLICHIVETNWRKHNLHSWVLHFNSRGSAAEFAVFHIMTRILEATNSLFLPLPPGFHTLHTILGVQCLPLHNLLHCIDSGVLLLTETAVIRLMKDLDNTEKNEKLKFSIIVRLPPLIGQKICRLWDHPMSSNIISRNHVTRLLQNYKKQPRNSMINKSSFSVEFLPLNYFIEILTDIESSNQALYPFEGHDNVDAEFVEEAALKHTAMLLGL | not soluble
MKAYKLLTTASIGALMLGMSTAAYSDNWRYAHEEYEGDVQDVFAQAFKGYVEDNSDHTVQVYRFGELGESDDIMEQTQNGILQFVNQSPGFTGSLIPSAQIFFIPYLMPTDMDTVLEFFDESKAINEMFPKLYAEHGLELLKMYPEGEMVVTADEPITSPEDFDNKKIRTMTNPLLAETYKAFGATPTPLPWGEVYGGLQTGIIDGQENPIFWIESGGLYEVSPNLTFTSHGWFTTAMMANQDFYEGLSEEDQQLVQDAADAAYDHTIEHIKGLSEESLEKIKAASDEVTVTRLNDEQIQAFKERAPQVEEKFIEMTGEQGQELLDQFKADLKAVQSESEG | soluble
SLRQIRTVIQYQTVRYDILPLSPVSRNRLAQVKRKILVLDLDETLIHSHHDGVLRPTVRPGTPPDFILKVVIDKHPVRFFVHKRPHVDFFLEVVSQWYELVVFTASMEIYGSAVADKLDNSRSILKRRYYRQHCTLELGSYIKDLSVVHSDLSSIVILDNSPGAYRSHPDNAIPIKSWFSDPSDTALLNLLPMLDALRFTADVRSVLSRNLHQHRLW | soluble
